Assay results from US20130224779A1, “METHOD FOR LARGE SCALE PREPARATION OF THE ACTIVE DOMAIN OF HUMAN PROTEIN TYROSINE PHOSPHATASE WITHOUT FUSION PROTEIN” (Korea Research Institute of Bioscience and Biotechnology, priority 2007, published 2013).

B1: T38: recombinant PTP active domain; unstable domain 636-979, stable domain 709-979, SEQ. ID. NO: 120 (protein)
chain: LAKEWQALCAYQAEPNTCATAQGEGNIKKNRHPDFLPYDHARIKLKVESSPSRSDYINASPIIEHDPRMPAYIATQGPLSHTIADFWQMVWESGCTVIVMLTPLVEDGVKQCDRYWPDEGASLYHVYEVNLVSEHIWCEDFLVRSFYLKNVQTQETRTLTQFHFLSWPAEGTPASTRPLLDFRRKVNKCYRGRSCPIIVHCSDGAGRTGTYILIDMVLNRMAKGVKEIDIAATLEHVRDQRPGLVRSKDQFEFALTAVAEEVNAILKALP
modifications: Amino acid sequence of PTP active domain T38
B2: full length pk7: full length pk7 (MKP2), unstable domain amino acids 1-394 (protein, UniProt Q13115 1-394, looked up)
chain: MVTMEELREMDCSVLKRLMNRDENGGGAGGSGSHGTLGLPSGGKCLLLDCRPFLAHSAGYILGSVNVRCNTIVRRRAKGSVSLEQILPAEEEVRARLRSGLYSAVIVYDERSPRAESLREDSTVSLVVQALRRNAERTDICLLKGGYERFSSEYPEFCSKTKALAAIPPPVPPSATEPLDLGCSSCGTPLHDQGGPVEILPFLYLGSAYHAARRDMLDALGITALLNVSSDCPNHFEGHYQYKCIPVEDNHKADISSWFMEAIEYIDAVKDCRGRVLVHCQAGISRSATICLAYLMMKKRVRLEEAFEFVKQRRSIISPNFSFMGQLLQFESQVLATSCAAEAASPSGPLRERGKTPATPTSQFVFSFPVSVGVHSAPSSLPYLHSPITTSPSC
modifications: full-length
B3: re-designed pk7: re-designed stable PTP active domain of pk7 (MKP2), amino acids 174-338, SEQ. ID. NO: 136 (protein)
chain: SATEPLDLGCSSCGTPLHDQGGPVEILPFLYLGSAYHAARRDMLDALGITALLNVSSDCPNHFEGHYQYKCIPVEDNHKADISSWFMEAIEYIDAVKDCRGRVLVHCQAGISRSATICLAYLMMKKRVRLEEAFEFVKQRRSIISPNFSFMGQLLQFESQVLATS
modifications: Amino acid sequence of PTP active domain pk7

Legend:
[1] = Protease (trypsin or chymotrypsin) digestion of PTP active domain, SDS-PAGE; format: physicochemical; conditions: 37° C., 30 minutes, SDS-PAGE (FIG. 8)
Method: Based on the result of Example <1-3-1>, 20 μg of PTP active domain having low solubility and stability was serially diluted from 1:1 to 1:1,000, followed by reaction with trypsin (Sigma, USA) or chymotrypsin (Sigma, USA) at 37° C. for 30 minutes. SDS-PAGE was performed by the same manner as described in Example 3 to confirm digestion.

[2] = Solubility and stability of expressed domain by SDS-PAGE of supernatant and precipitate; format: physicochemical; conditions: expressed in E. coli, SDS-PAGE (FIG. 9)
Method: After cloning the PTP active domain determined in Example <1-2>, it was expressed in E. coli and purified therefrom. After storing for a while, a proper amount of protein solution was ultra-centrifuged to separate supernatant and precipitate. SDS-PAGE was performed with the precipitate by the same manner as described in Example 3 to investigate whether the precipitate contained the target protein, leading to the examination of solubility.
The protein band cut by protease obtained in Example <1-3-2> was transferred to PVDF membrane. The band was cut and treated with a reagent recognizing and digesting N-terminal, followed by HPLC stepwise to arrange amino acids. Mass spectrometry was performed with the band to calculate the mass exactly and select stable domains. The re-designed domains were tested for activity and stability by the same manner as described in Example 4.

Row | Molecule | stability with increase of protease concentration [1] | solubility [2] | stability [2]
1 | B1 | maintained |  | 
2 | B2 |  | low | low
3 | B3 |  | high | high
